The text below walks through data of patent publication US20260258115A1 (MAPP BIOPHARMACEUTICAL, published 2026).

What is called Kd is a measure of binding affinity in units of concentration. A higher Kd goes with a looser complex.

The target of test [1] is T1, RSV prefusion F (preF), subtype B (respiratory syncytial virus subtype B).
T1 construct: also called Prefusion subtype B
The test can be described thus: BLI, IgG. A general note: BLI is a label-free optical method that tracks binding on a fibre tip over time.

Test [2] deals with RSV prefusion F (preF), subtype B (respiratory syncytial virus, subtype B). The test can be described thus: BLI, IgG.

B1: ADI-22756 (antibody, V domains shown)
VH: EVQLLESGGGVVQPGRSLRLSCVASGFTFSTYGVHWVRQAPGKGLEWVAVISYDGANKDYADSVKGRFTISRDNSKNTLYLQMNSLRAEDTAVYYCAKMITRVLPGGFDRWGQGTLVTVSS
VL: EIVMTQSPGTLSLSPGERATLSCRASQSVSSAYLAWYQQKPGQAPRLLIYDASRRATGIPDRFSGSGSGTDFTLTISRLEPEDFAVYYCQQYGSSRFTFGQGTKVEIK
notes: full-length IgG
B1 gave a Kd in test [1] of 55.8 nM.

B2: ADI-14412 (antibody, V domains shown)
VH: QVQLVQSGAEVKKPGASVKVSCKASGYTFTRYGISWVRQAPGQGLEWMGWISDYNGNTKNAEKFQGRVTMTTDTYTNIAYMELRSLRSDDTAVYYCARDWWITVGGIIAPFDYWGQGTLVTVSS
VL: ETTLTQSPGTLSLSPGERATLSCRASQSVSSDYLAWFQQKPGQAPRLLIYGASSRATDIPDRFSGSGSGTDFTLTISRLESEDFAVYYCLHYAGARTFGQGTKVEIK
notes: also called Ab 78
As to B2, the Kd in test [2] was 13.4 nM.

B3: ADI-25491 (antibody, V domains shown)
VH: EVQLLESGPGLVKPSQTLSLTCTVSGGSISSGGYYWSWIRQHPGKGLEWIGYIYYSGSTYYNPSLKSRVTISVDTSKNQFSLKLSSVTAADTAVYYCAREVVPAAIRAGYYFDYWGQGTLVTVSS
VL: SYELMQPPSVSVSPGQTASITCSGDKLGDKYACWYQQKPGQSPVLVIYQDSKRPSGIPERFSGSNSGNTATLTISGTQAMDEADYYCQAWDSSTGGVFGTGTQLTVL
notes: full-length IgG
B3: the Kd in test [1] turned out to be 21.9 nM.

B4: ADI-14428 (antibody, V domains shown)
VH: EVQLLESGGGLVKPGGSLRLSCAASGFTFSDHYMSWIRQAPGKGLEWVSYISSTSSFTNYADSLKGRFTISRDNAKNSLYLQMNSLRAEDTAVYYCARPYIVALGTRAFDIWGQGTTVTVSS
VL: SYVLTQPPSVSVAPGKTARITCGGNNIGSKTVHWYQQKPGQAPVLVSYYDSDRPSGIPERFSGSNSGNTATLTISRVEAGDEADYYCQVWDGSSEHYVFGTGTKVTVL
notes: also called Ab 94
In test [2], B4 showed a Kd of 14.1 nM.

B5: ADI-14363 (antibody, V domains shown)
VH: QVQLVESGGGLVKPGGSLRLSCAASGFTFSDYYMSWIRQAPGKGLEWVSYISGGGTYTKYADSVKGRFTISRDNAKNSVYLQMNSLRAEDTAVYYCARDVALVGWELRYGMDVWGQGTTVTVSS
VL: ETTLTQSPGTLSLSPGERATLSCRARENVNSSYLAWYQQKPGQAPRLLIYGASSRATGIPDRFSGSGSGTDFTLTISRLEPEDFAVYYCQQYAISPWTFGQGTKVEIK
notes: full-length IgG; also called Ab 31
Molecule B5 registered a Kd in test [1] of 5.35 nM.

B6: ADI-14601 (antibody, V domains shown)
VH: EVQLLESGGGLVQPGGSLRLSCAASGFTFSSYAMNWVRQAPGKGLEWVSTISGSGSSTYYADSVEGRFTISRDNSKNTLYLQMNSLRAEDTAIYYCAKEPRDMYIQQWLDSWGQGTLVTVSS
VL: GIRLTQSPSSVSASVGDRVIITCRASQGIRSWLAWYQQKPGKAPKLLIYAASRLQSGVPSRFSGSGSETDFTLTISSLQPEDFASYYCQQANSFPLTFGGGTKVEIK
For B6, in test [2], the affinity, expressed as Kd, was 1.96 nM.

B7: ADI-14591 (antibody, V domains shown)
VH: QVQLVQSGAEVKKPGESLRISCTGSGYTFTNYWISWVRQMPGKGLEWMGRIDPTDSYTNYSPSFQGHVTISADKSISTAYLQSSSLKASDTATYYCARHRRLVPAAMSRGYYGMDVWGQGTTVTVSS
VL: EIVMTQSPSSLSASVGDRATITCRASQSISSYLNWYQQKPGKAPKLLIYAASNLQSGAPSRFSGSGSGTDFTLTISSLQPEDFATYFCQQTYSTPYTFGQGTKVEIK
notes: also called Ab 120
In test [2], B7 displayed a Kd of 0.554 nM.

B8: ADI-14403 (antibody, V domains shown)
VH: QVQLVESGGGLGKPGGSLRLSCAASGFTFSGYYMSWIRQAPGKGLEWVSDISSGSSFTNYADSVKGRFTISRDNAKNSLYLQMNSLKAEDTAVYYCARVPPDSYGSGSYSGDSWGQGTLVTVSS
VL: QSVVTQPPSVSGAPGQRVTISCTGSSSNIGAGYGVHWYQQLPGTAPKLLIYGNTNRPSGVPDRISGSKSGTSASLVITGLQAEDEADYYCQSYDSSLSGWVFGGGTKLTVL
notes: also called Ab 69
B8 yielded a Kd in test [2] of 0.699 nM.

B9: ADI-14586 (antibody, V domains shown)
VH: QVQLVQSGGGLVKPGGSLRLSCAASGFTFSDYYMSWIRQAPGKGLEWVSYISSSSSYTNYADSVKGRFTISRDNAKNSLYLQMNSLRAEDTAVYYCAKRTEYCSSTGCAYYFDYWGQGTLVTVSS
VL: QSVVTQPPSVSGAPGQRVTISCTGSSSNIGAGYDVHWYQQLPGTAPKLLIYGNSNRPSGVPDRFSGSKSGTSASLAITGLQAEDEADYYCQSYDSSLSGSVFGGGTKVTVL
For the molecule B9, in test [2], the Kd came out at 6.7 nM.

B10: ADI-14587 (antibody, V domains shown)
VH: EVQLLESGGGLVKPGGSLRLSCAASGFTLTSYSMNWVRQAPGKGLEWVSSISSSSSYIHYADSVKGRFTISRDNAKNSLYLQMNSLRAEDTAVYYCAGSSLYPPFFDYWGQGTLVTVSS
VL: QSVVTQPPSVSGAPGQRVTISCTGSSSNLGAGYDVHWYQQLPGTAPKLLIYGNNNRPSGVPDRFSGSKSGTSASLAITGLQAEDEADYYCQSYDSSLSSVVFGGGTKLTVL
For the molecule B10, the equilibrium dissociation constant (Kd) in test [2] is 0.833 nM.

B11: ADI-14581 (antibody, V domains shown)
VH: QVQLVQSGAEVKKPGSSVKVSCKASGGTFSSHAFSWVRQAPGQGLEWMGGIIPSLNTANYAQKFQGRVSITADESTGTAYMELSSLRSDDTAVYFCAREVFGYGYYFDYWGQGTLVTVSS
VL: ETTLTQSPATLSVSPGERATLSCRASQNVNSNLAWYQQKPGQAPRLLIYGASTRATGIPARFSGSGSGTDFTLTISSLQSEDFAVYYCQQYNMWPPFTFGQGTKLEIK
notes: also called Ab 110
Molecule B11 came in with an equilibrium dissociation constant (Kd) in test [2] of 2.88 nM.

B12: ADI-14424 (antibody, V domains shown)
VH: QVQLVQSGAEVKKPGESLKISCKGPDSSFSVYWIAWVRQMPGKGLEWMGVIYVGDSDTRYSPSFRGQVTISADKSMNTAYLQWSSLKASDTAMYFCARHIPPGPFDLWGQGTMVTVSS
VL: NFMLTQPHSVSASPGKTITISCTRSSGSIASNSVQWYQQRPGSAPTNVIYEDDQRPLGVPNRFSGSIDSSSNSASLTISGLKTEDEADYYCHSYHNSDQVFGGGTKLTVL
notes: also called Ab 90
In the case of B12, the Kd in test [2] was 1.9 nM.

B13: ADI-14582 (antibody, V domains shown)
VH: QVQLVQSGAEVKKPGESLKISCKGPDSSFSVYWIAWVRQMPGKGLEWMGVIYVGDSDTRYSPSFRGQVTISADKSINTAYLQWSSLKASDTAMYFCARHIPPGPFDLWGQGTTVTVSS
VL: NFMLTQPHSVSASPGKTITISCTRSSGSIASNSVQWYQQRPGSAPTNVIYEDNQRPLGVPNRFSGSIDSSSNSASLTISGLKTEDEADYYCQSYHSSDQVFGGGTKVTVL
B13: the affinity in test [2], expressed as Kd, was 1.81 nM.

B14: ADI-14580 (antibody, V domains shown)
VH: QVQLVQSGAEVKKPGSSVKVSCKASGGTFSSYTINWVRQAPGQGLEWMGRIIPVLGMASYVQNFQGRVSITADESTSTAYMELSSLTSEDTALYYCAKGAVAAANDVFDVWGQGTTVTVSS
VL: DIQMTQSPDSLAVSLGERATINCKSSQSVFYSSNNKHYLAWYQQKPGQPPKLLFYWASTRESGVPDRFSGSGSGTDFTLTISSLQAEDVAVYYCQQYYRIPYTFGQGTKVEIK
B14 returned a Kd in test [2] of 4.54 nM.

B15: ADI-24798 (antibody, V domains shown)
VH: EVQLLESGPGLVKPSETLSLTCTVSGGSISSYYWSWIRQPPGKGLEWIGYIYYSGSTNYNPSLKSRVTISVDTSKNQFSLKLSSVTAADTAVYYCARILGHCSGGSCYRIIDYWGQGTLVTVSS
VL: not shown
notes: full-length IgG
B15 displayed a Kd in test [1] of 5.27 nM.

B16: ADI-14402 (antibody, V domains shown)
VH: QVQLVQSGAEVKKPGASVKVSCKTSGYTFTNYGISWVRQAPGQGLEWMGWISAYNGNRNYAQKLQGRVTMTTDTSTSTAYMELRSLRSDDTAVYYCAREPPVIAAGDFSHWGQGTLVTVSS
VL: EIVLTQSPLSLPVTLGQPASISCRSSQSLVHSDANTYLSWFQQRPGQSPRRLIYKVSNRDSGVPDRFSGSGSGTDFTLKISRVEAEDVGVYYCMQGTHWPPDFGQGTRLEIK
notes: also called Ab 68
In turn, B16 showed a Kd in test [2] of 0.416 nM.

B17: ADI-14583 (antibody, V domains shown)
VH: QVQLVQSGAEVKEPGASVKVSCKASGYTFTNYGISWVRQAPGQGLEWLGWISAYNGNIHYAQKVQGRVTMTTDTSTSTGFMELRSLRSDDTAVYYCAREPPVIAAGDFQHWGQGTLVTVSS
VL: ETTLTQSPLSLPVTLGQPASISCRSSQSLVHSNGNTYLSWFQQRPGQSPRRLIYRVSNRDSGVPDRFSGSGSGTDFTLKISRVEAEDVGLYYCMQGTHWPPDFGQGTRLEIK
Molecule B17 came in with a dissociation constant Kd in test [2] of 1.59 nM.

B18: ADI-14585 (antibody, V domains shown)
VH: QVQLVQSGAEVKKPGASVKVSCKASGYTFANYGIGWVRQAPGQGLEWMGWISAYNGKTNYAQKFQGRVTMTTDTSTSTAYMELRSLRSDDTAVYYCAREPPVIAAGDFPHWGQGTLVTVSS
VL: ETTLTQSPLSLPVTLGQPASISCRSSQSLEHSDLNTYLSWFQQRPGQSPRRLIYKVSNRDSGVPDRFSGSGSGTDFTLRISRVEAEDVGVYYCMQGTHWPPDFGQGTRLEIK
Turning to B18, in test [2], the Kd came to 0.449 nM.

B19: ADI-14380 (antibody, V domains shown)
VH: QVQLVQSGAEVKKPGESLKISCKGSGYTFTSYWIGWVRQLPGKGLEWMGVIFPGDSDTRYSPSFQGQVTISADKSISTAYLQWSSLKAADTAMYYCARTRLGRGFYRFDSWGQGTLVTVSS
VL: QSVLTQPPSVSAAPGQKVTISCSGSSSNIGNNYVSWYQQLPGTAPRLLIYENNERPSGIPDRFSGSKSGTSATLGITGLQTGDEADYYCATWDSGLSAGYVFGTGTKLTVL
notes: full-length IgG; also called Ab 48
For the molecule B19, the dissociation constant (Kd) in test [1] was 10.8 nM.

B20: ADI-14588 (antibody, V domains shown)
VH: QVQLVQSGAEVKKPGASVKVSCKVSGDTLTELSIHWVRQAPGKGHEWMGYFDHEDGEIMYAQKFQGRVTMTGDTSTDTAYMELSSLRSEDTAVYYCATVAAAGQFDYWGQGTLVTVSS
VL: DIQLTQSPSSLSASVGDRVTITCRARQSISTYLNWYQQKPGKAPKLLIYAASSLQSGVPSRFSGSGSGTDFTLTISSLQPEDFATYYCQQSYSSPYTFGQGTKVDIK
For B20, binding in test [2] was characterised by a dissociation constant (Kd) of 1.48 nM.

B21: ADI-24854 (antibody, V domains shown)
VH: EVQLVESGGGLVKPGGSLRLSCAASGFTFSSYSMNWVRQAPGKGLEWVSSISSSSSYIYYADSVKGRFTISRDNAKNSLYLQMNSLRAEDTAVYYCARDRRFGELFYFDYWGQGTLVTVSS
VL: QSVLTQPPSVSGAPGQRVTISCTGSSSNIGAGYDVHWYQQLPGTAPKLLIYGNSNRPSGVPDRFSGSKSGTSASLAITGLQAEDEADYYCQSYDSSLSGNWVFGGGTKLTVL
notes: full-length IgG
With B21, the dissociation constant (Kd) in test [1] was 30.3 nM.

B22: ADI-24841 (antibody, V domains shown)
VH: QVQLVQSGAEVKKPGASVKVSCKASGYTFTSYAMHWVRQAPGQRLEWMGWINAGNGNTKYSQKFQGRVTITRDTSASTAYMELSSLRSEDTAVYYCARDGFPTNYDFWSGYSDDAFDIWGQGTMVTVSS
VL: not shown
notes: full-length IgG
On to B22, for which the Kd in test [1] amounted to 26.6 nM.

B23: ADI-25518 (antibody, V domains shown)
VH: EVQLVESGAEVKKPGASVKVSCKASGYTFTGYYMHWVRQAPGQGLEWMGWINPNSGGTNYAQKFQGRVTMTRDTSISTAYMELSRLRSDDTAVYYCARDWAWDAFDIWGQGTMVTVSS
VL: QSVLIQPASVSGSPGQSITISCTGTSSDVGGYNYVSWYQQHPGKAPKLMIYDVSNRPSGVSNRFSGSKSGNTASLTISGLQAEDEADYYCSSYTSSSTLVFGGGTQLTVL
notes: full-length IgG
In turn, B23 came in with a Kd in test [1] of 39.5 nM.
